Where “and” joins values, the source holds several entries; their conditions need not be identical. Identical values can stand only once.

For this data set the following is noted: Homo sapiens; pH 7.82; 20 °C; GdnHCl; CD; sodium phosphate 50 mM; whole UniProt chain shown.

B1: Thioredoxin-like protein 4A wild type, P83876 (protein)
chain: MSYMLPHLHNGWQVDQAILSEEDRVVVIRFGHDWDPTCMKMDEVLYSIAEKVKNFAVIYLVDITEVPDFNKMYELYDPCTVMFFFRNKHIMIDLGTGNNNKINWAMEDKQEMVDIIETVYRGARKGRGLVVSPKDYSTKYRY
Turning to B1, the denaturant m value is 2.16 kcal/mol/M and 3.24 kcal/mol/M; the “denaturant midpoint (higher = more stable)” value was 3.39 M and 3.41 M; the unfolding free energy is 7.32 kcal/mol and 11.1 kcal/mol.

The record behind these values is FireProtDB (doi:10.1021/bi034486i).
